{
  "source": "paper PMC9082959",
  "about": "“Mechanism of Assembly of the Non-Covalent Spectrin Tetramerization Domain from Intrinsically Disordered Partners” (Journal of molecular biology, 2013)",
  "test_in_all_cases": "ITC; β16β17 at 25–50 μM in the cell titrated with 15–20 injections to 2–2.5 eq of α0α1; one-site binding model; PBS (50 mM sodium phosphate, 150 mM NaCl, pH 7.04), 25 °C; mutants only against the wild-type partner",
  "conditions_in_all_cases": "both partners purified",
  "key": {"β16β17 R13G": {"target": "T1, β16β17 R13G (human, UniProt P11277 1898-2083, R2016G)", "T1 construct": "erythrocyte β-spectrin, human, residues 1898-2083 (β16β17); mutant of m2; also called R2016G; source: E. coli C41(DE3), purified (Ni2+ agarose, thrombin cleavage, gel filtration)", "T1 sequence (looked up)": "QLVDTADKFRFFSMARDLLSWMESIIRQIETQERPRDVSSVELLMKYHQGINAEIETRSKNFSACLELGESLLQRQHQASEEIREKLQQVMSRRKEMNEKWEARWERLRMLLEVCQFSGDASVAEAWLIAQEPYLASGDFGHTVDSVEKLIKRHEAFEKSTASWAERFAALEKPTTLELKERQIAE"}, "β16β17 K67G": {"target": "T2, β16β17 K67G (human, UniProt P11277 1898-2083, K2070G)", "T2 construct": "erythrocyte β-spectrin, human, residues 1898-2083 (β16β17); mutant of m2; also called K2070G; source: E. coli C41(DE3), purified (Ni2+ agarose, thrombin cleavage, gel filtration)", "T2 sequence (looked up)": "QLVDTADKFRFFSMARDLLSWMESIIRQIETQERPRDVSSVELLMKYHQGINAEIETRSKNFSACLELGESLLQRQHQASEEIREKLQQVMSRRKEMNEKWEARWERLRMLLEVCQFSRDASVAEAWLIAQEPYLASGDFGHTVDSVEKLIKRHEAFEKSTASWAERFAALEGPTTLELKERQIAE"}, "β16β17 K67A": {"target": "T3, β16β17 K67A (human, UniProt P11277 1898-2083, K2070A)", "T3 construct": "erythrocyte β-spectrin, human, residues 1898-2083 (β16β17); mutant of m2; also called K2070A; source: E. coli C41(DE3), purified (Ni2+ agarose, thrombin cleavage, gel filtration)", "T3 sequence (looked up)": "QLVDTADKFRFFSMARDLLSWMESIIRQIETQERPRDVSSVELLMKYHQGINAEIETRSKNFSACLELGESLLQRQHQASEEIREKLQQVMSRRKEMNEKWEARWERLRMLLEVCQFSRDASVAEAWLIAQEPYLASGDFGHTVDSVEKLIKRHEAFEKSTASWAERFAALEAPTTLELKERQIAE"}, "β16β17 S57A": {"target": "T4, β16β17 S57A (human, UniProt P11277 1898-2083, S2060A)", "T4 construct": "erythrocyte β-spectrin, human, residues 1898-2083 (β16β17); mutant of m2; also called S2060A; source: E. coli C41(DE3), purified (Ni2+ agarose, thrombin cleavage, gel filtration)", "T4 sequence (looked up)": "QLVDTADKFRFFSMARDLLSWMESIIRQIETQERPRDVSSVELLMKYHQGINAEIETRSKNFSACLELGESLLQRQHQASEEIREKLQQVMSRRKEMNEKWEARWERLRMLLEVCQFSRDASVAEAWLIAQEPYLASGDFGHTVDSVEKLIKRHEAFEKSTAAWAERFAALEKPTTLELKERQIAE"}, "β16β17 S16A": {"target": "T5, β16β17 S16A (human, UniProt P11277 1898-2083, S2019A)", "T5 construct": "erythrocyte β-spectrin, human, residues 1898-2083 (β16β17); mutant of m2; also called S2019A; source: E. coli C41(DE3), purified (Ni2+ agarose, thrombin cleavage, gel filtration)", "T5 sequence (looked up)": "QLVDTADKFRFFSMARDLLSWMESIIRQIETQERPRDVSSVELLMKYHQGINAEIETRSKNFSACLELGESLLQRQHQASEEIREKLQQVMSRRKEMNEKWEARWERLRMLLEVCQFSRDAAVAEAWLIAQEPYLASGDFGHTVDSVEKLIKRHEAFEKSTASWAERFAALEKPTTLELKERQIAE"}, "β16β17 A24G": {"target": "T6, β16β17 A24G (human, UniProt P11277 1898-2083, A2027G)", "T6 construct": "erythrocyte β-spectrin, human, residues 1898-2083 (β16β17); mutant of m2; also called A2027G; source: E. coli C41(DE3), purified (Ni2+ agarose, thrombin cleavage, gel filtration)", "T6 sequence (looked up)": "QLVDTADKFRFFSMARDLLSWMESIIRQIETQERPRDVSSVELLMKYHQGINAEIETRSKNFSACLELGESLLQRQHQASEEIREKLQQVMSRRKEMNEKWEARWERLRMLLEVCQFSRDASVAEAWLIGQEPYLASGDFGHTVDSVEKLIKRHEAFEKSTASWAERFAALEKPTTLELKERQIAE"}},
  "data": [
    {"binder": "α0α1 (erythrocyte α-spectrin residues 2–163), wild type (domain or fragment, human, UniProt P02549 2-163, looked up, synthetic gene (GenScript) in a modified pRSETA plasmid; also called α1α0; source: E. coli C41(DE3), purified (Ni2+ agarose, thrombin cleavage, gel filtration)) EQFPKETVVESSGPKVLETAEEIQERRQEVLTRYQSFKERVAERGQKLEDSYHLQVFKRDADDLGKWIMEKVNILTDKSYEDPTNIQGKYQKHQSLEAEVQTKSRLMSELEKTREERFTMGHSAHEETKAHIEELRHLWDLLLELTLEKGDQLLRALKFQQY", "values": [
      {"measurement": "Ka", "setting": "β16β17 R13G", "result": 71000, "unit": "M⁻¹"},
      {"measurement": "Ka", "setting": "β16β17 K67G", "result": 140000, "unit": "M⁻¹"},
      {"measurement": "Ka", "setting": "β16β17 K67A", "result": 500000, "unit": "M⁻¹"},
      {"measurement": "Ka", "setting": "β16β17 S57A", "result": "1.5e+06", "unit": "M⁻¹"},
      {"measurement": "Ka", "setting": "β16β17 S16A", "result": 490000, "unit": "M⁻¹"},
      {"measurement": "Ka", "setting": "β16β17 A24G", "result": 242000, "unit": "M⁻¹"}
    ]}
  ]
}
